What was measured:
[1] = in vivo
Method: As a test substance, the compound is was used, and it was used after being dissolved in phosphate buffered saline such that the pharmaceutical concentration is 3 mg/mL.
For the test, a BN/CrlCrlj rat (Charles River Laboratories International, Inc., 5-week old) was used. It was placed on its back and fixed under general anesthesia, and by using a sonde for intratracheal administration (MicroSprayer (registered trademark) Aerosolizer Model IA-1B, manufactured by Penn-Century), intratracheal administration was performed with volume of 100 μL. As general anesthesia, inhalation of isoflurane (concentration of 3.0% and flow rate of 2.0 L/min) was employed.
Weight of the pulmonary tissue was measured and, after being added with an aqueous solution of ammonium formic acid (pH 6.0):methanol (3:2, v/v) at ratio of 40× (1 g: 40 mL), it was homogenated for about 1 minute under ice cooling by using a homogenizer. […] Meanwhile, the measurement was made with n=3 for each evaluation time point.
Each parameter of pharmacokinetics was calculated from a change in average content in pulmonary tissue. If there was an animal showing the measurement value of less than the lower limit of quantification, the average content in pulmonary tissue was calculated by substituting the value of 0 (zero) for it. The time t (hr) for calculating AUC0-t was the final time point at which the quantification can be made. Meanwhile, for calculation of the parameters of pharmacokinetics, non-compartmental analysis model analysis by WinNonlin Professional (registered trademark) Ver 5.2.1 was used. […] The results are shown in FIG. 2 and the following table.
The compounds vb obtained from Example 5 was evaluated in the same manner as the method described in (Test example B1) in terms of the persistent property of the pharmaceutical in a pulmonary tissue of a normal rat.
As a comparative control group, budesonide alone in the same amount as the compound vb, and a mixture of budesonide and chondroitin sulfate in the same amount as the compound vb were administered. Meanwhile, in the present measurement system, the lower detection limit of budesonide was 1 ng/mL. Meanwhile, the evaluation time points include three points, i.e., Hour 4, 24, and 72.

[2] = system: OVA sensitized rat model; assay: Dose responsiveness of budesonide alone in OVA sensitized rat model; type: in vivo; conditions: doses 0.01, 0.1, 1, 10 mg/kg to bronchus 1 hour before 4th and 5th OVA exposure
Method: Dose responsiveness of budesonide alone in an OVA sensitized rat model was determined.
There were four doses for determination, i.e., 0.01 mg/kg, 0.1 mg/kg, 1 mg/kg, and 10 mg/kg.
As a test system, a male BN rat was used. For OVA sensitization, 1 mL of Alum containing 1 mg/mL OVA was administered intraperitoneally. After the sensitization, physiological saline containing 10 mg/mL OVA was used for inhalation exposure, 5 times every 24 hours, by using a nebulizer. The test substance was administered to a bronchus 1 hour before the 4th and 5th inhalation exposure of OVA.
On Hour 24 after the final exposure, 2 mL of PBS containing 0.1% BSA (heated to 37° C.) was administered under pentobarbital anesthesia to a bronchus followed by recovery. This procedure was repeated 5 times to give bronchoalveolar lavage fluid (BALF).
BALF was centrifuged for 3 minutes at 200×g and room temperature. The supernatant was discarded, and the pellet was re-suspended in PBS (500 μL, heated to 37° C.) containing 0.1% BSA. Subsequently, a smear sample of the BALF was prepared followed by Diff-Quik staining. According to cell fractionation, ratio of eosinophil in white blood cells was calculated. According to integration with the number of white blood cells in BALF, the number of […] in BALF was calculated (number of white blood cells was measured by using blood cell counting chamber).

[3] = system: rat antigen-induced asthma model; assay: Rat antigen-induced asthma model, eosinophils in bronchoalveolar lavage fluid; type: in vivo; conditions: for number of eosinophils in bronchoalveolar lavage fluid, % of control: average value
Method: Intraperitoneal administration of 1 mL of aluminum hydroxide gel containing ovalbumin (1 mg/mL) was performed 3 times with one day interval. 14 Days after performing the first sensitization, intraperitoneal administration of 1 mL of aluminum hydroxide gel containing ovalbumin (1 mg/mL) was performed again followed by the second sensitization. 7 Days after the second sensitization, inhalation exposure of physiological saline (10 mg/mL) containing ovalbumin was performed by using a nebulizer five times with one day interval in order to induce asthma.
The 0.6 mg/mL prednisolone suspension was orally administered by using a sonde for oral administration under no anesthesia to have prednisolone amount of 3 mg/kg.
Meanwhile, the test was performed with n=6 to 12.
24 Hours after the fifth exposure, phosphate buffered saline (2 mL) containing 0.1% bovine serum albumin heated to 37° C. was injected to a bronchus of a rat under pentobarbital anesthesia and collected thereafter. This procedure was repeated 5 times to have bronchoalveolar lavage fluid. The bronchoalveolar lavage fluid was centrifuged for 3 minutes at 200×g and room temperature. The supernatant was discarded, and the pellet was re-suspended in phosphate buffered saline (500 μL) containing 0.1% bovine serum albumin.
Subsequently, a smear sample of the suspension was prepared followed by Diff-Quik staining. According to cell fractionation, ratio of eosinophil in white blood cells was calculated. According to integration with the number of white blood cells in bronchoalveolar lavage fluid, the number of […] in bronchoalveolar lavage fluid was calculated. Meanwhile, the number of white blood cells in bronchoalveolar lavage fluid was measured by using a blood cell counting chamber. The results are shown in FIG. 4 and the following table.
Dose responsiveness of the compound va in an OVA sensitized rat model was determined in the same manner as (Test example B2).
There were three doses for determination, i.e., 0.35 mg/kg, 3.5 mg/kg, and 35 mg/kg, such that the budesonide amount for administration is 0.1 mg/kg, 1 mg/kg, or 10 mg/kg.

[4] = Solubility in water
[5] = Blood kinetics (plasma drug concentration) in normal rat after intratracheal administration; type: in vivo
Method: The resultant was extracted with chloroform and methanol, and the extracted solution was measured by LC-MS/MS.

[6] = Drug dissociation test: polysaccharide derivative in buffer solution, 36°C, 1 week, HPLC; type: physicochemical
Method: In the examples relating to drug dissociation test, the drug dissociation ratio was evaluated as described below.
Sodium dihydrogen phosphate dihydrate (780 mg (5.0 mmol)) was dissolved in 500 mL of distilled water to give a liquid A. Separately, disodium hydrogen phosphate dodecahydrate (1.79 g (5.0 mmol)) was dissolved in 500 mL of distilled water to give a liquid B. By mixing the liquid A and liquid B at ratio of 2:3, a phosphate buffer solution of pH 7.5 was prepared.
0.62 g (10 mmol) of boric acid and 0.75 g (10 mmol) of potassium chloride were weighed and dissolved in 500 mL of distilled water to give a liquid C. Separately, by diluting 0.1 N sodium hydroxide solution with distilled water (×10 dilution), a liquid D was prepared.
50 mL of the liquid C and 7 mL of the liquid D were added to a 100 mL mess flask, and according to dilution to 100 mL with distilled water, a borate buffer solution of pH 8.0 was prepared. Furthermore, 50 mL of the liquid C and 40 mL of the liquid D were added to a 100 mL mess flask, and according to mess-up to 100 mL with distilled water, a borate buffer solution of pH 9.0 was prepared.
Each polysaccharide derivative obtained from above was dissolved in a buffer solution at each pH so as to have a concentration of 5 mg/10 mL, and heated for 1 week in an incubator at 36° C. Then, the drug dissociation ratio during the incubation was evaluated every 24 hours by liquid chromatography (HPLC).
The evaluation was performed by measuring the ratio between the drug amount remained in a polysaccharide derivative and the dissociated drug amount according to use of a size exclusion chromatography column (manufactured by TOSOH, TSKgel α-6000, 7.8 mmI.D.×30 cm).
Detailed conditions for the liquid chromatography are as follows.
Analysis time: 40 minutes
Solution for elution: acetonitrile (for HPLC):physiological saline=1:2
Detector: UV detector (240 nm)

[7] = single intratracheal administration 100 μL, 7 days before the evaluation time point
[8] = BN/CrlCrlj, rat, plasma, inhaled or intranasal, 0.3 mg/animal

Work on `CCCC1O[C@@H]2C[C@H]3[C@@H]4CCC5=CC(=O)C=C[C@]5(C)[C@H]4[C@@H](O)C[C@]3(C)[C@]2(C(=O)CO)O1` (some centres unmarked) [budesonide] yielded a concentration at 4 h ([1]; BN/CrlCrlj, rat, in vivo) of 471 ng/g, a concentration at 24 h ([1]; BN/CrlCrlj, rat, in vivo) of 0.3 ng/g and a concentration at 72 h ([1]; BN/CrlCrlj, rat, in vivo) of 0.1 ng/g. The “administration amount at which eosinophil inhibitory activity was shown” value [2] was at least 0.1 mg/kg.
In the case of `C[C@]12C=CC(=O)C=C1CC[C@@H]1[C@@H]2[C@@H](O)C[C@@]2(C)[C@H]1CC[C@]2(O)C(=O)CO` [Prednisolone, prednisolone, reference compound], the “number of eosinophils in bronchoalveolar lavage fluid, % of control” value (“number of eosinophils … % of control” for short) ([3]; oral 3 mg/kg, five times, 30 minutes before inducing asthma, positive control) is reported as 28.0 % of control.
In the case of “Chondroitin Sulfate Introduced with 21-β-Alanyl-Betamethasone [Compound ia]”, the “eosinophil infiltration compared to phosphate buffered saline group (in words)” value ([3]; Day 7 after single intratracheal administration) is reported as “significantly suppressed eosinophil infiltration” and the “number of eosinophils … % of control” value [3, 7] is reported as 56.8 % of control.
With `CCCC1OC2CC3C4CCC5=CC(=O)C=CC5(C)C4C(O)CC3(C)C2(C(=O)COC(=O)CCCCCCCCCCCN)O1` (centres unmarked) [Compound xviiib, Budesonide 12-Aminododecylate] the solubility in water [4] was “good solubility in water”.
For `C[C@H]1C[C@H]2[C@@H]3CCC4=CC(=O)C=C[C@]4(C)[C@@]3(F)[C@@H](O)C[C@]2(C)[C@@]1(O)C(=O)CO` [Betamethasone, betamethasone], the Tmax ([1]; BN/CrlCrlj, rat, in vivo, inhaled or intranasal) was 4 h, the “time after administration until which exposure of betamethasone was observed in pulmonary tissue” value ([1]; normal rat, intratracheal, final evaluation time point […], lower limit for quantification 10 ng/g) was 48 h and the Cmax [5, 8] was 1.01 µg/mL. The Tmax [5, 8] was 0.5 h, the “course of plasma concentration (in words)” value ([5]; betamethasone in plasma, normal rat, intratracheal, lower limit of quantification 5 ng/mL) was “after 24 hours, it was lower than the lower limit for quantification” and the “number of eosinophils … % of control” value [3, 7] was 90.0 % of control.
With “Chondroitin Sulfate Introduced with 11-(2-Fluoro-β-Alanyl)-Propionic Acid Fluticasone [Compound viii]” the “Dissociation ratio (%/day)” value ([6]; pH 7.4, 36°C) was 3.1 %/day, the drug dissociation ratio ([6]; pH 7.4, 36°C, day 0) was 0.1% and the drug dissociation ratio ([6]; pH 7.4, 36°C, day 1) was 7.9%. For the same compound, the drug dissociation ratio ([6]; pH 7.4, 36°C, day 2) was 4.9%, the drug dissociation ratio ([6]; pH 7.4, 36°C, day 3) was 12.7% and the drug dissociation ratio ([6]; pH 7.4, 36°C, day 4) was 8.4%. It also gave a drug dissociation ratio ([6]; pH 7.4, 36°C, day 5) of 15.2%, a drug dissociation ratio ([6]; pH 7.4, 36°C, day 6) of 14.3% and a drug dissociation ratio ([6]; pH 7.4, 36°C, day 7) of 21.8%. The “Dissociation ratio (%/day)” value ([6]; pH 8.0, 36°C) was 10.1 %/day, the drug dissociation ratio ([6]; pH 8.0, 36°C, day 0) was 0.3% and the drug dissociation ratio ([6]; pH 8.0, 36°C, day 1) was 14.8%. The drug dissociation ratio ([6]; pH 8.0, 36°C, day 2) was 26.3%, the drug dissociation ratio ([6]; pH 8.0, 36°C, day 3) was 27.1% and the drug dissociation ratio ([6]; pH 8.0, 36°C, day 4) was 29.8%. It also gave a drug dissociation ratio ([6]; pH 8.0, 36°C, day 5) of 64.5%, a drug dissociation ratio ([6]; pH 8.0, 36°C, day 6) of 47.4% and a drug dissociation ratio ([6]; pH 8.0, 36°C, day 7) of 70.9%.
With “Hyaluronic Acid Introduced with Proxyphylline [xxiib]” the “Dissociation ratio (%/day)” value ([6]; pH 7.4, 36°C) was 0.8 %/day, the drug dissociation ratio ([6]; pH 7.4, 36°C, day 0) was 0.0% and the drug dissociation ratio ([6]; pH 7.4, 36°C, day 1) was 0.7%. It also gave a drug dissociation ratio ([6]; pH 7.4, 36°C, day 2) of 1.3%, a drug dissociation ratio ([6]; pH 7.4, 36°C, day 3) of 2.2% and a drug dissociation ratio ([6]; pH 7.4, 36°C, day 4) of 2.8%. It also gave a drug dissociation ratio ([6]; pH 7.4, 36°C, day 5) of 3.6%, a drug dissociation ratio ([6]; pH 7.4, 36°C, day 6) of 4.4% and a drug dissociation ratio ([6]; pH 7.4, 36°C, day 7) of 5.3%. For the same compound, the “Dissociation ratio (%/day)” value ([6]; pH 8.0, 36°C) was 2.0 %/day, the drug dissociation ratio ([6]; pH 8.0, 36°C, day 0) was 0.0% and the drug dissociation ratio ([6]; pH 8.0, 36°C, day 1) was 2.1%. It also gave a drug dissociation ratio ([6]; pH 8.0, 36°C, day 2) of 4.6%, a drug dissociation ratio ([6]; pH 8.0, 36°C, day 3) of 7.0% and a drug dissociation ratio ([6]; pH 8.0, 36°C, day 4) of 8.8%. The drug dissociation ratio ([6]; pH 8.0, 36°C, day 5) was 10.4%, the drug dissociation ratio ([6]; pH 8.0, 36°C, day 6) was 12.6% and the drug dissociation ratio ([6]; pH 8.0, 36°C, day 7) was 14.3%.

Reference: patent publication US20160158369A1, “PHARMACEUTICAL COMPOSITION FOR RESPIRATORY ADMINISTRATION” (SEIKAGAKU CORPORATION, priority 2013, published 2016)
